Literature values as cited in paper PMC3642679.

Biological target: sliding clamp beta (Escherichia coli) (UniProt P0A988)
Sequence of UniProt P0A988 (P0A988 whole entry): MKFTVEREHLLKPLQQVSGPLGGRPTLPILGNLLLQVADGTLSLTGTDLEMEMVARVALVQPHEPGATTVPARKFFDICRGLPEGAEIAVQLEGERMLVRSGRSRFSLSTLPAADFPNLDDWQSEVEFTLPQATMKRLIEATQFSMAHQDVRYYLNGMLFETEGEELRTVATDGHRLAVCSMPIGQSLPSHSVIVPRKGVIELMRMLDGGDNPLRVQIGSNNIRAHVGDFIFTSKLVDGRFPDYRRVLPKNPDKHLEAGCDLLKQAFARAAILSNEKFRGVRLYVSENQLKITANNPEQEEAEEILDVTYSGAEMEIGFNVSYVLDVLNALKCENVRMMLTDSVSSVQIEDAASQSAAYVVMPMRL

Q: For Pol III alpha (from UniProt P10443), which Kd is on record?
A: The Kd was 1000 nM.
